The assay deals with T1, Recombinant human CD137 protein (human, UniProt Q07011 24-186).
T1 construct: also called CD137 receptor; 4-1BB
The experiment in a line: competition ELISA against biotinylated CD137 ligand on coated human CD137. In general terms: ELISA stands for enzyme-linked immunosorbent assay.

B1: αCD137-AB1 (antibody, human IgG4 S228P, kappa, V domains shown)
VH: EVQLVESGGGLVQPGGSLRLSCAASGFSLSTGGVGVGWIRQAPGKGLEWLALIDWADDKYYSPSLKSRLTISRDNSKNTLYLQLNSLRAEDTAVYYCARGGSDTVIGDWFAYWGQGTLVTVSS
VL: DIQLTQSPSSLSASVGDRVTITCRASQSIGSYLAWYQQKPGKAPKLLIYDASNLETGVPSRFSGSGSGTDFTLTISSLQPEDFATYYCQQGYYLWTFGQGTKVEIKR
notes: also called AG10131; Hit ID 5365
As for B1, the binding result was “binds”.

(Values after patent US20200377608A1 (ADAGENE, published 2020).)
